Target: BCL‐xL (UniProt Q07817)
Assay: crystal structure; co-crystals of Affimer and target, solved by molecular replacement with Phaser

- stoichiometry N: 2
Substance: BCL‐xL (from UniProt Q07817-1 1-233) (natural protein)

From PMC7821230
